# Results from paper doi:10.1101/2024.08.03.606473.
# What was measured:
# [1] = target: SidF C-trim (residues 1-443) (Aspergillus fumigatus) (UniProt Q4WF55); assay: SEC
# [2] = target: SidF C-trim (residues 1-443) (Aspergillus fumigatus) (UniProt Q4WF55); assay: SAXS
substance,measurement,setting,value
SidF C-trim (residues 1-443) (from UniProt Q4WF55 1-443) (domain or fragment),stoichiometry N,[1],4
same,stoichiometry N,[2],2
